Publication PMC2665095 (The Journal of Biological Chemistry, 2009)

Experiments:
[1] = target: T1, PBS3 (AtGH3.12; His-PBS3) (Arabidopsis thaliana, UniProt Q9LYU4); assay: coupled adenylation assay; type: biochemical; conditions: 150 μM pABA, 5 mM ATP, 5 mM MgCl2, pH 7.4
T1 sequence (Q9LYU4 1-575): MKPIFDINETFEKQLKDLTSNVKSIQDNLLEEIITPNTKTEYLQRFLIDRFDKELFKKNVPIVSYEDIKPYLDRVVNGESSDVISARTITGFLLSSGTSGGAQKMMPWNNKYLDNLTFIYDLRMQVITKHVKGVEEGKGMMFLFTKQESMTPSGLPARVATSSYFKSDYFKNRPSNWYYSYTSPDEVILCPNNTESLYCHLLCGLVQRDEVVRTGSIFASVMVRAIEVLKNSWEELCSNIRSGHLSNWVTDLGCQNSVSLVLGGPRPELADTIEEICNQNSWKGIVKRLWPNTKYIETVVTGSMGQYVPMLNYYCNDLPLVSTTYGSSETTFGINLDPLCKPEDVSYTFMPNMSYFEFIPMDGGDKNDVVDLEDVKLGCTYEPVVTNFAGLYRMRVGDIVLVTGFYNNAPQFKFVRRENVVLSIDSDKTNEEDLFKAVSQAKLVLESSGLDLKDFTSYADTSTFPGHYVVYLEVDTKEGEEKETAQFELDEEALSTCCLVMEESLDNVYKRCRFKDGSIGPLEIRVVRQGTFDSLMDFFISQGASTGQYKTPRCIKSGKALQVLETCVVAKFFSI

[2] = target: T1, PBS3 (AtGH3.12; His-PBS3); assay: HPLC of pABA-Glu formation; type: biochemical
purified protein [3] = substrate: Nc1ccc(C(=O)O)cc1; assay: purified protein; conditions: 10 mM Glu, 5 mM ATP, 5 mM MgCl2, pH 8.5
purified protein [4] = substrate: Nc1ncnc2c1ncn2[C@@H]1O[C@H](COP(=O)(O)OP(=O)(O)OP(=O)(O)O)[C@@H](O)[C@H]1O; assay: purified protein; conditions: with 10 mM 4-HBA, Mg2+, pH 7.4, 30 °C
purified protein [5] = substrate: O=C(O)c1ccc(O)cc1; assay: purified protein; conditions: 10 mM Glu, 5 mM ATP, 5 mM MgCl2, pH 8.5
purified protein [6] = substrate: O=C(O)c1ccccc1; assay: purified protein; conditions: 10 mM Glu, 5 mM ATP, 5 mM MgCl2, pH 8.5
[7] = substrate: C=C(O[C@H]1C=CC=C(C(=O)O)[C@@H]1O)C(=O)O; assay: coupled spectrophotometric assay; type: biochemical, Pseudomonas aeruginosa; conditions: modified ICS assay conditions (100 mM Tris, pH 7.7)

O=C(O)c1cc(Cl)nc(Cl)c1 [INA]
Fractional inhibition (300 μM) [1]: 0.70 fraction

O=C(O)c1ccccc1O [salicylate]
IC50 [2]: ~15 µM

B1: PBS3 (AtGH3.12; His-PBS3) (Arabidopsis thaliana) (protein)
chain: T1 sequence (Q9LYU4 1-575)
Km (purified protein [3]): 153 µM | kcat (purified protein [3]): 0.0457 s⁻¹ | kcat/Km (purified protein [3]): 298 M⁻¹ s⁻¹ | Km (purified protein [4]): 791 µM | Km (purified protein [5]): 459 µM | kcat (purified protein [5]): 0.339 s⁻¹ | kcat/Km (purified protein [5]): 740 M⁻¹ s⁻¹ | Km (purified protein [6]): 867 µM | kcat (purified protein [6]): 0.066 s⁻¹ | kcat/Km (purified protein [6]): 76.7 M⁻¹ s⁻¹

B2: PchB (isochorismate pyruvate lyase) (Pseudomonas aeruginosa PAO1) (protein)
chain: MKTPEDCTGLADIREAIDRIDLDIVQALGRRMDYVKAASRFKASEAAIPAPERVAAMLPERARWAEENGLDAPFVEGLFAQIIHWYIAEQIKYWRQTRGAA
Km [7]: 60 µM
